Assay results reported in article doi:10.1101/2020.04.08.026906.

Target: C3b (UniProt P01024)
Experiment: SPR

Chain of UniProt P01024 (P01024 whole entry, looked up): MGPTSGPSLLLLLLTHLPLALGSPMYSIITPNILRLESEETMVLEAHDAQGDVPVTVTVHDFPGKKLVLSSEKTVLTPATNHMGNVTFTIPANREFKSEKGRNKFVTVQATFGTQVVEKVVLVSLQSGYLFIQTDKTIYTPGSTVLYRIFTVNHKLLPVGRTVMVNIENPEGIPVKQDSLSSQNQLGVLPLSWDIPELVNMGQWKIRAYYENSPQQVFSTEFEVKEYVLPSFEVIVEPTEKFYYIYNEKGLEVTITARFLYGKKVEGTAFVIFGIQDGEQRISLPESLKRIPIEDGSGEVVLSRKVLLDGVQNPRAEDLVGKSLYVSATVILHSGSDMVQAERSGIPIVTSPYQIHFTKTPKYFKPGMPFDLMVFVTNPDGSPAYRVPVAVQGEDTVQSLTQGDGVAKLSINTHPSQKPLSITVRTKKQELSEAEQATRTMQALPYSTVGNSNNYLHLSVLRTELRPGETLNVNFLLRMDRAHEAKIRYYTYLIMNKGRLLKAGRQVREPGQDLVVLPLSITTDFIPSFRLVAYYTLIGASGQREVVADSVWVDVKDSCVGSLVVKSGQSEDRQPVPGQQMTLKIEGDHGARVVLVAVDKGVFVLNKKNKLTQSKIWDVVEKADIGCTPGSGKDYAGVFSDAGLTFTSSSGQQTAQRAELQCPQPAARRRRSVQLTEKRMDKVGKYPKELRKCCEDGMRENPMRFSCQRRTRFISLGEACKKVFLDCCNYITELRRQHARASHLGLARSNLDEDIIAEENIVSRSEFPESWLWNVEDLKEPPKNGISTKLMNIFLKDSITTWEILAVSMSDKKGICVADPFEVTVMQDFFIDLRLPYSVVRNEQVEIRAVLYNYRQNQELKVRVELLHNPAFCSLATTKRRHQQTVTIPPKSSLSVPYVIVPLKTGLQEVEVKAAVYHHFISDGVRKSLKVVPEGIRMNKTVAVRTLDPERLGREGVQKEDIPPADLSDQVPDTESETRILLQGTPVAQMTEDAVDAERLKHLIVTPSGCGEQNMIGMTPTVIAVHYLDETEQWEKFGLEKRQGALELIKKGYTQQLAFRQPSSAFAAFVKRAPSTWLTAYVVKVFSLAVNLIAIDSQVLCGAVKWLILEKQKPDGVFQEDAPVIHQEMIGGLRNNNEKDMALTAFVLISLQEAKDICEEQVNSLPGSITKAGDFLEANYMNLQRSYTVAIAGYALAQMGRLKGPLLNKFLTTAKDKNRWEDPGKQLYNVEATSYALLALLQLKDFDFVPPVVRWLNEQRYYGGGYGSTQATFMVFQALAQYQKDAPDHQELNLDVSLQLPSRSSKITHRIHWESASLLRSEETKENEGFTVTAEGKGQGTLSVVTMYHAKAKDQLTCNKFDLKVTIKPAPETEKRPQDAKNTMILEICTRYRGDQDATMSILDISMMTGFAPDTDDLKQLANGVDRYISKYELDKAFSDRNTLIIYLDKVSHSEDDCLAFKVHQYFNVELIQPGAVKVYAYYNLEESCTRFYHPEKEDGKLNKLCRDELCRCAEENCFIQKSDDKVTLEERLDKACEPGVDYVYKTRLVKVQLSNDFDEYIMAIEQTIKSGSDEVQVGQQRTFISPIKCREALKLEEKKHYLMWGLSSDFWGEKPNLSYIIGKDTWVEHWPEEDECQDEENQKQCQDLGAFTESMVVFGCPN

plasma derived Factor H (from UniProt P08603 19-1231) (natural protein)
KD with anti-FH.07.1 Fab' fragments: 1.9 µM | Kd: 6 µM
